According to article PMC5041093, “Acidic Residues Control the Dimerization of the N-terminal Domain of Black Widow Spiders’ Major Ampullate Spidroin 1” (Scientific Reports, 2016):

Experiments:
[1] = biological target: NRN1_(L.h.) variant E114Q (Latrodectus hesperus); assay: SEC-MALS; Superdex 200 10/300 GL, 20 mM sodium phosphate pH 7.2 without NaCl, 71.2 μM protein injected; monomer to dimer
[2] = biological target: NRN1_(L.h.) variant E114Q (Latrodectus hesperus); assay: NMR 15N relaxation (T1, T2; rotational correlation time); 15N-labelled E114Q, 22 mM sodium phosphate pH 7.2 without salt, 10% D2O; molecular weight estimated from the rotational correlation time
[3] = biological target: the molecule itself; assay: SEC-MALS; Superdex 200 10/300 GL, 20 mM sodium phosphate pH 6.0 without NaCl, 71.2 μM protein injected; monomer to dimer

| Molecule | stoichiometry N [1] | stoichiometry N [2] | stoichiometry N [3] |
| --- | --- | --- | --- |
| NRN1_(L.h.) variant E114Q (domain or fragment) | 2 | 2 |  |
| amino-terminal domain of Latrodectus hesperus major ampullate spidroin 1, wildtype (domain or fragment, non-repetitive amino-terminal domain (NRN1) of major ampullate spidroin 1 (MaSp1), Latrodectus hesperus; also called wtNRN1_(L.h.); NRN1_(L.h.); source: E. coli BL21 (DE3), purified (nickel-NTA, SEC)) QANTPWSSKANADAFINSFISAASNTGSFSQDQMEDMSLIGNTLMAAMDNMGGRITPSKLQALDMAFASSVAEIAASEGGDLGVTTNAIADALTSAFYQTTGVVNSRFISEIRSLIGMFAQASANDVYASAGS |  |  | 2 |
